# Data reported in patent US20090317382A1 (Genmab, published 2009).
# B1: IgG4-637 (antibody)
# heavy: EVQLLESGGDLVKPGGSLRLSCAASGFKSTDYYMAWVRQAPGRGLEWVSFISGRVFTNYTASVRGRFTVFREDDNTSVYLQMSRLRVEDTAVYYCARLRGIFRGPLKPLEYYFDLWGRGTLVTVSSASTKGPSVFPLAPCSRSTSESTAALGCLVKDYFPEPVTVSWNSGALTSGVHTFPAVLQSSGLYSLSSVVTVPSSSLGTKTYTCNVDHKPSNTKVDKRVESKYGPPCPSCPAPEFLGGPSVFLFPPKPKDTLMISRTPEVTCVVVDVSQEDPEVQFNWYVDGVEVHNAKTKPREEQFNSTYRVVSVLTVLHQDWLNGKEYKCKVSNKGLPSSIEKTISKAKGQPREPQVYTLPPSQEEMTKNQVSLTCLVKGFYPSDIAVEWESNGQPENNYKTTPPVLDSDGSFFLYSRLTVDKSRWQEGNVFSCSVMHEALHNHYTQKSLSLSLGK
# light: EIELTQPHSVSESPGKTVTISCTRSSGSIASNYVQWYQQRPGSSPTTVIYEDNQRPSGVPDRFSGSIDSSSNSASLTISGLKTEDEADYYCQSYDSNSGGRVFGGGTKLTVLGQPKAAPSVTLFPPSSEELQANKATLVCLISDFYPGAVTVAWKADSSPVKAGVETTTPSKQSNNKYAASSYLSLTPEQWKSHRSYSCQVTHEGSTVEKTVAPTECS
# notes: also called anti-MG
# B2: IgG1-637 (antibody)
# heavy: not shown
# VL: EIELTQPHSVSESPGKTVTISCTRSSGSIASNYVQWYQQRPGSSPTTVIYEDNQRPSGVPDRFSGSIDSSSNSASLTISGLKTEDEADYYCQSYDSNSGGRVFGGGTKLTVL
# Assays:
# [1] = target: T1, human AChR from membrane extracts of TE671 cells (human, UniProt P02708 21-457; P11230 24-501; P07510 23-517; Q07001 22-517)
# [2] = target: T1, human AChR from membrane extracts of …; remark: listed apart in the source
# human C1q [3] = target: T2, human C1q (human, UniProt P02745 23-245; P02746 28-253; P02747 29-245); experiment: ELISA: IgG coated at varied concentration, C1q binding read as OD405; sheet heading '3% human serum'
# T2 construct: The method names purified human C1q at 2 µg/ml; also called C1q (Quidel, A400); first component of the classical complement system
# T2 sequence (P02745 23-245 limits assumed, chain 1 of 3): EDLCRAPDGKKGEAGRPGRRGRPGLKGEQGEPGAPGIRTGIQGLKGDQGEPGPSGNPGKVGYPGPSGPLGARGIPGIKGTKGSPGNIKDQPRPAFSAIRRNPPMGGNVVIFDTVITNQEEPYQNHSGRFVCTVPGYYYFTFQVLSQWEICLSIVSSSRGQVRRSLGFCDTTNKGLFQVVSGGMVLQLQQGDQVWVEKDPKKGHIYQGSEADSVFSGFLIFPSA
# T2 sequence (P02746 28-253 limits assumed, chain 2 of 3): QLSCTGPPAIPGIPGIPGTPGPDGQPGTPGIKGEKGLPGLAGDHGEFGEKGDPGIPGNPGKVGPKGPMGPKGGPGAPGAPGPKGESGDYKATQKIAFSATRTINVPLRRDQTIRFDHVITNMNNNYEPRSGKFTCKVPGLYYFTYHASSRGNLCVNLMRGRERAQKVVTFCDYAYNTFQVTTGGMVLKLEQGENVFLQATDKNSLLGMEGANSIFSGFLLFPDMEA
# T2 sequence (P02747 29-245 limits assumed, chain 3 of 3): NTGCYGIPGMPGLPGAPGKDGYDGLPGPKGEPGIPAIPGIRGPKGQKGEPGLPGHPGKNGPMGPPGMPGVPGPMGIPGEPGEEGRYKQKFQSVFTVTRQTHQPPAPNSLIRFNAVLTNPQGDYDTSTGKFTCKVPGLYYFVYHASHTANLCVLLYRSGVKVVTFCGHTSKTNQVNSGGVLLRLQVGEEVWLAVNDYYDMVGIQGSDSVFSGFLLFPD
# [4] = target: T1, human AChR from membrane extracts of …; remark: listed apart in the source
# AChR of rhesus monkeys = target: T3, AChR of rhesus monkeys (rhesus monkey (Macaca mulatta)); experiment: immunohistochemistry of endplates in human and monkey biopsies, qualitative comparison of staining intensities
# T3 construct: In muscle tissue (sections of biopsies, or in the living animal); also called macaque AChR; monkey receptor
# human C1q [5] = target: T2, human C1q; experiment: ELISA: IgG coated at varied concentration (the concentration is that of the coating), C1q binding read as OD405, 3% human serum
# Protocol: (§1) Subsequently, plates were emptied. For the C3 and C4 ELISAs the wells were washed 3 times with 200 μl PBST (PBS supplemented with 0.05% (v/v) tween-20). Subsequently, for C1q ELISA, wells were incubated with 2 μg/mi human C1q (Quidel, San Diego, Calif., USA, A400) in C1q buffer (100 μl/well, 37° C., 1 h). […] After washing the plates (3×) with PBST for the C3 and C4 ELISA and C1q buffer for the C1q ELISA, for the C1q ELISA wells were incubated with rabbit anti-human C1q (DAKO, Glostrup, Denmark, A0136), diluted in C1q buffer (1:1000, 100 μl/well, room temperature, 1 h). […] After washing the plates (3×) with PBST for the C3 and C4 ELISA and C1q buffer for the C1q ELISA, for the C1q ELISA wells were incubated with HRP-conjugated swine anti-rabbit IgG-Fc (DAKO, P0399) diluted in ELISA buffer (1:2500, 100 μl/well, room temperature, 1 h). […] Absorbance was measured at 405 nm in an ELISA plate reader (Biotek Instruments Inc., Winooski, USA). To analyze, if complement activation by human IgG isotypes depends on the source of the complement, both human and rhesus serum were tested.
# C1q (3% rhesus serum) = target: T4, C1q (3% rhesus serum) (Macaca mulatta); experiment: ELISA: IgG coated at varied concentration (the concentration is that of the coating), C1q binding read as OD405, 3% rhesus serum
# T4 construct: native protein in 3% serum; also called rhesus C1q; C1q of rhesus monkey serum
# Protocol: as §1
Binder,EC50 (read off the curve) [1] [nM],IC50 (read off the curve) [2] [nM],binding result (human C1q [3]),Kd [4] [nM],"precipitation of the flag tagged antibody, percent remaining at two fold excess [4] [%]",fold reduced affinity compared to human receptor (AChR of rhesus monkeys) [fold],EC50 (read off the curve) (human C1q [5]) [µg/mL],EC50 (read off the curve) (C1q (3% rhesus serum)) [µg/mL]
B1,~3,~10,no binding,~1.7,~50,,,
B2,~3,~10,,~1.7,~50,~10,~2,~2
